Sequences and labels used below:
B2: neuropilin 1 receptor (receptor, UniProt O14786 273-586, looked up)
chain: FKCMEALGMESGEIHSDQITASSQYSTNWSAERSRLNYPENGWTPGEDSYREWIQVDLGLLRFVTAVGTQGAISKETKKKYYVKTYKIDVSSNGEDWITIKEGNKPVLFQGNTNPTDVVVAVFPKPLITRFVRIKPATWETGISMRFEVYGCKITDYPCSGMLGMVSGLISDSQITSSNQGDRNWMPENIRLVTSRSGWALPPAPHSYINEWLQIDLGEEKIVRGIIIQGGKHRENKVFMRKFKIGYSNNGSDWKMIMDDSKRKAKSFEGNNNYDTPELRTFPALSTRFIRIYPERATHGGLGLRMELLGCEVE
notes: The construct is not defined; The same entry is used for the SPR and ELISA experiments; also called NRP1; NRP 1

The experiment “neuropilin 1 receptor” concerns the target B2. Briefly: SPR (Biacore 2000), neuropilin 1 domain fixed on CM5 chip, VEGF165 as analyte 80 nM to 5 nM. As for the experimental part:
(§1) First, the affinity to a neuropilin receptor was performed on neuropilin 1 (NRP 1). Specifically, surface plasmon resonance (SPR) was performed using Biacore 2000 (GE Healthcare) in order to investigate the binding ability of TPP to the neuropilin 1 domain. Specifically, each neuropilin 1 domain was diluted in 10 mM Na-acetate buffer (pH 4.0), and fixed on CMS sensor chip (GE Healthcare, USA) at about 1,000 response units (RU). […] After the association/dissociation analysis, the CMS chip was regenerated by allowing buffer (20mM NaOH, 1M NaCl, pH 10.0) to flow at a flow rate of 30 μl/min for 1 minute.

The next experiment addresses T1, semaphorin 3A (UniProt Q14563 21-771, limits assumed).
T1 construct: also called Sema3A; Sema3A ligand
T1 sequence (looked up): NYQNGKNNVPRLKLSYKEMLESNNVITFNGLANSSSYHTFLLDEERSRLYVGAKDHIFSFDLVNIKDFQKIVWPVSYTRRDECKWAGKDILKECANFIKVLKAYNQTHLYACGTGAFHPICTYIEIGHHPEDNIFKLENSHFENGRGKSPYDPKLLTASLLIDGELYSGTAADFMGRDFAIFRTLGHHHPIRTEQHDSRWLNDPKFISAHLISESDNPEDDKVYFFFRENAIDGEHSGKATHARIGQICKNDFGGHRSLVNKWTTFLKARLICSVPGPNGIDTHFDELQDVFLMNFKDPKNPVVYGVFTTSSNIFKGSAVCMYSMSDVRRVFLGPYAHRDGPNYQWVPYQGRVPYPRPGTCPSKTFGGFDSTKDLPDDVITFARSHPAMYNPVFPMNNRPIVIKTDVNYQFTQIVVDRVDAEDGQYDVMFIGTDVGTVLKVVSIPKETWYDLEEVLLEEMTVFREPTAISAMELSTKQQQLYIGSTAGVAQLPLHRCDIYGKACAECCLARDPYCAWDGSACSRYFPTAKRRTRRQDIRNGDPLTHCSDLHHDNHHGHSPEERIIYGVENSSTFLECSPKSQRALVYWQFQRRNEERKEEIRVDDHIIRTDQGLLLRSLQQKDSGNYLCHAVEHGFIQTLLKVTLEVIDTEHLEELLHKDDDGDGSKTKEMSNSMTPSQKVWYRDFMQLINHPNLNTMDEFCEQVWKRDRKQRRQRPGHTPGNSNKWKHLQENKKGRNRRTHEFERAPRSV
Nature of the experiment: SPR (Biacore 2000), neuropilin 1 domain fixed on CM5 chip, semaphorin 3A as analyte 1 uM to 62.5 nM. As for the experimental part:
as §1
(In general: In SPR one partner is held on a chip, and binding of the other changes the refractive index at the surface.)

This note sets out measurements from US20180133288A1 (ILDONG PHARM, published 2018).

B1: VEGF165 (ligand, UniProt P15692-4 27-191, looked up)
chain: APMAEGGGQNHHEVVKFMDVYQRSYCHPIETLVDIFQEYPDEIEYIFKPSCVPLMRCGGCCNDEGLECVPTEESNITMQIMRIKPHQGQHIGEMSFLQHNKCECRPKKDRARQENPCGPCSERRKHLFVQDPQTCKCSCKNTDSRCKARQLELNERTCRCDKPRR
Usually Kd stands for the concentration at which binding is half-saturated. A low value points to a tighter complex. In the case of B1, in the experiment with neuropilin 1 receptor, binding was put at a Kd of 0.00351 µM.

Take B2: the Kd in the experiment with semaphorin 3A was determined as 0.0279 µM. This lies in the double-digit nanomolar range.
